{
  "source": "patent US20220144895A1",
  "about": "“DE NOVO DESIGN OF TUNABLE PH-DRIVEN CONFORMATIONAL SWITCHES” (University of Washington, priority 2019, published 2022)",
  "key": {"[1]": {"assay": "Fluorescence dequenching liposome leakage (liposome disruption) assay", "format": "biochemical", "settings": "for pH-dependent liposome disruption: 2.5 μM protein with respect to monomer, SRB leakage; for liposome disruption activity at pH 4.75: pH 4.75, 2.5 μM protein", "protocol": "Liposomes composed of DOPC (1,2-dioleoyl-sn-glycero-3-phosphocholine), DOPC with 25% cholesterol (molar ratio to DOPC), 3:1 DOPC:POPS (1-palmitoyl-2-oleoyl-sn-glycero-3-phospho-L-serine), and 3:1 DOPC:POPS with 25% cholesterol were prepared identically to a final concentration of 5 mM total lipid as previously described (32); lipids from Avanti Polar Lipids. Lipids solubilized in chloroform were dried under nitrogen gas and stored under vacuum for a minimum of 2 hours to remove residual solvent. The dried lipid film was the resuspended in Tris buffer (10 mM Tris, 150 mM NaCl, and 0.02% NaN3 pH 8.0) containing 25 mM Sulforhodamine B (SRB) fluorophore (Sigma) and subjected to 10 sequential freeze thaw cycles in liquid nitrogen. Liposomes were extruded 29 times through 100 nm pore size polycarbonate filters (Avanti Polar Lipids) and purified from free fluorophore using a PD-10 gel filtration column (GE Healthcare) into storage buffer (10 mM Tris, 150 mM NaCl, and 0.02% NaN3 pH 8.0). Liposome size and homogeneity was analyzed by dynamic light scattering (DLS) using a Dynapro Nanostar™ DLS (Wyatt Technologies). On average liposome diameter ranged from 120-130 nm with low polydispersity. Liposomes were stored at 4° C. and used within 5 days of preparation.\nLiposome disruption and content leakage was analyzed by fluorescence spectroscopy as previously described (32). […] The solution was rapidly acidified to the target pH by addition of a fixed volume of acidification buffer and incubated for 20 minutes. […] SRB fluorescence is independent of pH within the ranges used here. Finally. Triton X-100 (Sigma) was added to a final concentration of 1% to fully disrupt liposomes. Liposome disruption as indicated by content leakage and SRB dequenching was normalized using the formula [Fω−F(0)]/[F(Max)−F(0)] where F(0) is the average fluorescence intensity before acidification and F(Max) is the average fluorescence intensity ater addition of Triton X-100. All measurements were collected on a Varian Cary Eclipse spectrophotometer using an excitation/emission pairing of […] and 2.5 nm slit widths at 24° C. Any data plotted together was collected using the sum batch of liposomes."}, "[2]": {"assay": "Native mass spectrometry of pH-induced changes in oligomeric state", "format": "physicochemical", "settings": "for reversibility of disassembly: pH lowered with acetic acid, then raised by ammonia or buffer exchange; for pH response of oligomeric state (pH-induced disassembly): pH ~7 to ~3", "protocol": "Samples were buffer exchanged twice into 200 mM ammonium acetate (NH4Ac; MilliporeSigma) using Micro Bio-Spin P-6 columns (Bio-Rad). Protein concentrations were determined by UV absorbance using a Nanodrop 2000c spectrophotometer (Thermo Fisher Scientific) and diluted to make up a 10-fold stock solution (50 μM and 16.7 μM monomer and trimer concentration, respectively). 1 μL of this solution was mixed with 9 μL 200 mM NH4Ac/50 mM triethylammonium acetate (TEAA; MilliporeSigma), adjusted with acetic acid (Fisher Scientific) to obtain the desired final pH and incubated on ice for 30 min. […] 5 μL samples were filled into an in-house pulled glass capillary and ionized by nESI at a monomer or a trimer concentration of 5 μM or 1.67 μM respectively. All pH titration data were acquired on an in-house modified SYNAPT® G2 HDMS (Waters Corporation) with a surface-induced dissociation (SID) device incorporated between a truncated trap traveling wave ion guide and the ion mobility cell (39). The following instrument parameters were used spray voltage 0.9-1.3 kV; sampling cone, 20 V; extraction cone, 2 V; source temperature, room temperature; trap gas flow, 4 mL/min; trap bins, 45V. The data were processed with MassLynx™ v4.1 and DriftScope™ v2.1. For relative quantification, charge state series were extracted from DriftScope™, and smoothed spectra (mean; window 20; number of smooths 20) were integrated.\nPython scripts were written to generate theoretical models according Equation 1, and curve-fitting to native mass spectrometry data (FIGS. 1, 3, 5) according to Equation 2 by nonlinear least squares using curve fit from scipy.optimize. The free energy estimates for individual n, m, and l layers used in Equation 1 modeling were estimated by solving linear equations as follows: values for the free energy of folding for designs pRO-2 and variants were estimated from GdmCl denaturation experiments (FIG. 11); each of these designs have different numbers of n, m, and l layers, thus series of linear equations relating the number of each layer type to the total free energies of folding were solved to estimate dG values of the individual layers of each type."}, "[3]": {"assay": "Circular dichroism: GdmCl chemical denaturation and temperature melts", "settings": "CD at 222 nm, PBS pH 7.4 or Na2PO4-Citrate at lower pH", "text": "For low-pH experiments involving circular dichroism (CD), small-angle X-ray scattering (SAXS), and size exclusion chromatography (SEC), Na2PO4-Citrate buffer was used to ensure that a single buffer system could be used that was stable over the entire pH range to be tested. Buffers were made using established ratios of stock solutions of 0.2 M Na2PO4 and 0.1 M Citrate; final pH was adjusted using hydrochloric acid (HCl) or sodium hydroxide (NaOH) if needed.\nCD wavelength scans (260 to 195 nm) and temperature melts (25 to 95° C.) were measured using a JASCO™ J-1500 or an AVIV™ model 420 CD spectrometer. Temperature melts monitored absorption signal at 222 nm and were carried out at a heating rate of 4° C./min; protein samples were at 0.25 mg/mL in either phosphate buffered saline (PBS) pH 7.4 or Na2PO4-Citrate at indicated pH values (see Buffers systems for varying pH). Guanidinium chloride (GdmCl) titrations were all performed on an AVIV 420 spectrometer with an automated titration apparatus using either PBS pH 7.4 or Na2PO4-Citrate buffers at indicated pH at room temperature, monitoring helical signal at 222 nm, using a protein concentration of 0.025 mg/mL in a 1 cm cuvette with stir bar. Each titration consisted of at least 30 evenly distributed concentration points with one minute mixing time for each step. Titrant solution consisted of the same concentration of protein in the same buffer system plus GdmCl; GdmCl concentration of starting solutions was determined by reactive index."}, "[4]": {"settings": "fused at its n-terminus to a nanoparticle"}},
  "note": "Entries after “also recorded” stand apart in the source; their conditions may differ.",
  "data": [
    {"molecule": "SEQ ID NO: 39: similar to pRO2.3, Thrombin cleavage sites on each loop, destabilizing I56V mutation (protein) GSEEEIKRLLEELRKSSEELRRITKELDDLSKELRVGGSGSGSLVPRGSGSGSGSHALVEHNKLISEHNRIVVENNRIIVEILEAIARVGGSGSGSVEVERILDELRKSSEELDRVTKELKKLTEELDVGGSGSGSLVPRGSGSGSGSVEALVRHNVLITRHNDIVVKNNDIINKILKLIAEAVGGSGSGSELERILRELEESTKELRKATEELRRLSEELKVGGSGSGSLVPRGSGSGSGSHEALVRHNEAIVEHNKIVVKNNDIIVKILELITERI", "values": [
      {"measurement": "kinetics of liposome disruption relative to pRO2.3, nanoparticle fusion", "setting": "[1]; [4]", "value": "slower kinetics"},
      {"measurement": "liposome disruption relative to pRO2.3, nanoparticle fusion", "setting": "[1]; [4]", "value": "close as well as pRO2.3"}
    ]},
    {"molecule": "pRO-2.5: pRO-2 variant, SEQ ID NO: 11-12 (protein) chain 1: MGSHHHHHHGSGSENLYFQGSEYEIRKALEELKASTAELKRATASLRASTEELKKNPSEDALVENNRLIVEHNAIIVENNRIIAAVLELIVRAIK chain 2: SEYEIRKALEELKASTAELKRATASLRASTEELKKNPSEDALVENNRLIVEHNAIIVENNRIIAAVLELIVRAIK", "values": [
      {"measurement": "cooperativity of the pH-induced transition", "setting": "[2]; native MS at different pH values", "value": "least cooperative design tested"},
      {"measurement": "pH transition point of disassembly (pH set point, pH0)", "setting": "[2]; native MS, evaluated from pH 7 down to pH 3", "value": "~4", "unit": "pH"},
      {"measurement": "reversibility of disassembly", "setting": "[2]", "value": "Re-association was induced"},
      {"measurement": "folding stability by GdmCl denaturation", "setting": "[3]", "value": "lowest stability"}
    ]},
    {"molecule": "pRO-2 I70N: pRO-2 mutant, SEQ ID NO: 21-22 (protein) chain 1: MGSHHHHHHGSGSENLYFQGSEYEIRKALEELKAATAELKRATASLRAITEELKKNPSEDALVEHNRAIVEHNAIIVEHNRIIAAVLELNVRAIK chain 2: GSEYEIRKALEELKAATAELKRATASLRAITEELKKNPSEDALVEHNRAIVEHNAIIVEHNRIIAAVLELNVRAIK", "values": [
      {"measurement": "pH-dependent liposome disruption", "setting": "[1]", "value": "attenuation of pH-induced liposome disruption"},
      {"measurement": "pH-dependent liposome disruption", "setting": "[1]; listed as pRO-2170N", "value": "attenuates liposome activity"}
    ]},
    {"molecule": "2L6HC3_13: previous designed homotrimer lacking buried histidines, PDB ID 5J0H (protein) GTKYELRRALEELEKALRELKKSLDELERSLEELEKNPSEDALVENNRLNVENNKIIVEVLRIIAEVLKINAKSD", "values": [
      {"measurement": "pH response of oligomeric state (pH-induced disassembly)", "setting": "[2]; native MS", "value": "no change in oligomeric state; also recorded: no significant pH response"},
      {"measurement": "pH response of oligomeric state (pH-induced disassembly)", "setting": "[2]; native MS, listed as 2L6C3_13", "value": "not pH-sensitive"},
      {"measurement": "folding stability by GdmCl denaturation", "setting": "[3]", "value": "no change"},
      {"measurement": "folding stability by GdmCl denaturation", "setting": "[3]; listed as 2L6C3_13", "value": "no destabilization"}
    ]},
    {"molecule": "SEQ ID NO: 37: pRO2.3, single-chain, GS linkers on all loops, asymmetrized, TEV site opposite to the termini direction (protein) GSEEEIKRLLEELRKSSEELRRITKELDDLSKELRVGGSGSGSEMLVEHNKLISEHNRIIVENNRIIVEILEAIARVGGSGSGSVEVERILDELRKSSEELDRVTKELKKLTEELDVGGSENLYFQGSGSVEALVRHNVLITRHNDIIVKNNDIINKILKLIAEAVGGSGSGSELERILRELEESTKELRKATEELRRLSEELKVGGSGSGSVEALVRHNEAIVEHNKIIVKNNDIIVKILELITERI", "values": [
      {"measurement": "liposome disruption relative to pRO2.3, nanoparticle fusion", "setting": "[1]; [4]", "value": "as well as pRO2.3"},
      {"measurement": "kinetics of dissociation in the liposome assay", "setting": "[1]; linked-pH trimer", "value": "slower"},
      {"measurement": "membrane disruption level (dye leakage over time)", "setting": "[1]; linked-pH trimer, order of minutes", "value": "same membrane disruption levels"}
    ]},
    {"molecule": "SEQ ID NO: 38: similar to pRO2.3, TEV site parallel to the termini, aromatic residues on the n-terminal helix (protein) GSEEEIKRLLEELRKSSEELRRITKELDDLSKELRVGGSGSGSEMLVEHNKLISEHNRIIVENNRIIVEILEAIARVGGSGSGSVEVERILDELRKSSEELDRVTKELKKLTEELDVGGSGSGSVEALVRHNVLITRHNDIIVKNNDIINKILKLIGEAVGGSENLYFQGSGSEFERWLRQLEESTKELRKFTEELRRFSEELKVGGSGSGSVEALVRHNEAIVEHNKAIVKNNDIIVKILELVTERI", "values": [
      {"measurement": "liposome disruption better than the pRO2.3 homotrimer", "setting": "[1]; compared with pRO2.3 homotrimer", "value": "5-10%"}
    ]},
    {"molecule": "SEQ ID NO: 40: as SEQ ID NO: 39 but third asparagine network mutated to all hydrophobics (protein) GSEEEIKRLLEELRKALEELRRITKELDDLSKELRVGGSGSGSLVPRGSGSGSGSHALVEHNKLISEHNRIVVEVLRIIAEILEAIARVGGSGSGSVEVERILDELRKALEELDRVTKELKKLTEELDVGGSGSGSLVPRGSGSGSGSVEALVRHNVLITRHNDIVVKVLDIIAKILKLIAEAVGGSGSGSELERILRELEEALKELRKATEELRRLSEELKVGGSGSGSLVPRGSGSGSGSHEALVRHNEAIVEHNKIVVKVLDIIAKILELITERI", "values": [
      {"measurement": "kinetics of liposome disruption relative to pRO2.3, nanoparticle fusion", "setting": "[1]; [4]", "value": "slower kinetics"},
      {"measurement": "liposome disruption better than pRO2.3, nanoparticle fusion", "setting": "[1]; [4]", "value": "5-10%"}
    ]},
    {"molecule": "pRO-3.1: pRO-3 variant, SEQ ID NO: 25-26 (protein) chain 1: MGSHHHHHHGSGSENLYFQGSEALYELEKATRELKKATDELERATEELEKNPSEDALVEHNRLIAEHNKIIAEHNRIIAKVLK chain 2: GSEALYELEKATRELKKATDELERATEELEKNPSEDALVEHNRLIAEHNKIIAEHNRIIAKVLK", "values": [
      {"measurement": "pH response of oligomeric state (pH-induced disassembly)", "setting": "[2]; native MS", "value": "more pH-sensitive than design pRO-3"},
      {"measurement": "reversibility of disassembly", "setting": "[2]", "value": "re-association of monomers into trimer"},
      {"measurement": "pH-dependent liposome disruption", "setting": "[1]", "value": "did not exhibit any liposome disruption"},
      {"measurement": "liposome disruption activity at pH 4.75", "setting": "[1]", "value": "does not"}
    ]},
    {"molecule": "pRO-3: designed homotrimer, SEQ ID NO: 23-24 (protein) chain 1: MGSHHHHHHGSGSENLYFQGSEALYELEKALRELKKATAALERATAELKKNPSEDALVEHNRLIAAHNKIIAEVLRIIAKVLK chain 2: GSEALYELEKALRELKKATAALERATAELKKNPSEDALVEHNRLIAAHNKIIAEVLRIIAKVLK", "values": [
      {"measurement": "pH-dependent liposome disruption", "setting": "[1]", "value": "caused pH-dependent liposome disruption"},
      {"measurement": "liposome disruption activity at pH 4.75", "setting": "[1]", "value": "shows liposome disruption activity"}
    ]}
  ]
}
